First the molecules themselves.
B1: 11-2 (antibody, V domains shown)
VH: QVQLVESGGGVVQPGRSLRLSCAASGFTFGTYAMHWVRQAPGKGLEWVAVVSTEGGTTYYADSVKGRFTISRDNSKNTLYLQMNSLRAEDTAVYYCAGSYGAYFDYWGQGTLVTVSS
VL: EIVLTQSPATLSLSPGERATLSCRASQSVNSYLAWYQQKPGQAPRLLIYDVSNRATGIPARFSGSGSGTDFTLTISSLEPEDFAVYYCQQFSNWPTFGGGTKVEIK
B2: 11-9 (antibody, V domains shown)
VH: B1 VH
VL: EIVLTQSPATLSLSPGERATLSCRASQSVSYYLAWYQQKPGQAPRLLIYDSSNRATGIPARFSGSGSGTDFTLTISSLEPEDFAVYYCQQRSNWQGNFGGGTKVEIK
B3: 11-1 (antibody, V domains shown)
VH: QVQLVESGGGVVQPGRSLRLSCAASGFTFGSYGMHWVRQAPGKGLEWVAVISYDGGDEYYADSVKGRFTISRDNSKNTLYLQMNSLRAEDTAVYYCARDISRYGYYGMDVWGQGTLVTVSS
VL: EIVLTQSPATLSLSPGERATLSCRASQSLGSFLAWYQQKPGQAPRLLIYDASNRATGIPARFSGSGSGTDFTLTISSLEPEDFAVYYCQQRALWPRLTFGGGTKVEIK
B4: 11-15 (antibody, V domains shown)
VH: QVQLVESGGGVVQPGRSLRLSCAASGFIFSNYGMHWVRQAPGKGLEWVAVISYDGSDKYYADSVKGRFTISRDNSKNTLYLQMNSLRAEDTAVYYCARDDYMYGFEHWGQGTLVTVSS
VL: EMVVPQSPPTVSLSPGERATLSCRASQSVGSYLAWYQQKPGQAPRLLIYDAVNRATGIPARFSGSGSGTDFTLTISSLEPEDFAVYYCQQRSDSITFGGGTKVEIK
B5: 11-3 (antibody, V domains shown)
VH: QVQLVESGGGVVQPGRSLRLSCAASGFTFSNFAMHWVRQAPGKGLEWVAVISYDGNHEYYADSVKGRFTISRDNSKNTLYLQMNSLRAEDTAVYYCAKTNSGSYGGMFDYWGQGTLVTVSS
VL: EIVLTQSPATLSLSPGERATLSCRASQNIGNHLAWYQQKPGQAPRLLIYDASNRATGIPARFSGSGSGTDFTLTISSLEPEDFAVYYCQQRDNGPPEGTFGGGTKVEIK
B6: 11-11 (antibody, V domains shown)
VH: QVQLVESGGGVVQPGRSLRLSCAASGFTFDNYAMHWVRQAPGKGLEWVAVISYDGSNKYYADSVKGRFTISRDNSKNTLYLQMNSLRAEDTAVYYCLREGILWDVWGQGTLVTVSS
VL: EIVLTQSPATLSLSPGERATLSCRASHNINNFLAWYQQKPGQAPRLLIYDTSNRATGIPARFSGSGSGTDFTLTISSLEPEDFAVYYCQQGRNWPPSSFGGGTKVEIK
B7: 11-4 (antibody, V domains shown)
VH: QVQLVESGGGVVQPGRSLRLSCAASGFTFDNYAMHWVRQAPGKGLEWVAVISDDGRNKYYADSVKGRFTISRDNSKNTLYLQMNSLRAEDTAVYYCAKDNYYDSSGYYGGGMDVWGQGTLVTVSS
VL: B2 VL with S30G, Y31S, S51A, S52V, S92F, N93T, Q95P, G96T, N97T
B8: 11-6 (antibody, V domains shown)
VH: QVQLVESGGGVVQPGRSLRLSCAASGFTFGTYAMHWVRQAPGKGLEWVAVVSTEGGTTYYADSVKGRFTISRDNSKNTLYLQMNSLRAEDTAVYYCAGEYYDSSGSSIDYWGQGTLVTVSS
VL: B2 VL with S30D, Y31S, Y32S, S51A, R91Q, Q95P, N97T
B9: 11-10 (antibody, V domains shown)
VH: QVQLVESGGGVVQPGRSLRLSCAASGFIFNNYGMHWVRQAPGKGLEWVAVISYDGSNIYYADSVKGRFTISRDNSKNTLYLQMNSLRAEDTAVYYCARDYNDGIGSYTGAFDSWGQGTLVTVSS
VL: B2 VL with Y31T, Y32S, S51A, S52T, R91H, S92Y, N93S, Q95P, G96L, N97T

Residue numbers refer to the chain shown, from its start.

The assay addresses biotinylated SARS-CoV-2 S1 variant B.1.351 (Example 5) (SARS-CoV-2) (UniProt P0DTC2). Put plainly: phage ELISA screening. (In general: An ELISA detects its analyte on a solid surface through an enzyme-linked reagent.)
With B1, the ELISA worked out at 19.4. Turning to B2, the ELISA was found to be 9.14. Take B3: the ELISA was 21.7. Molecule B4 registered an ELISA of 4.97. As for B5, the ELISA amounted to 17.3. B6 gave an ELISA of 6.43.

In turn, B7 gave an ELISA of 16.3. The figure for B8 is 12.6; for B9 it is 7.06.

These data come from US20230192818A1.
